Series [1] concerns T1, fusion protein of glutathione S transferase and human DDR2 cytosolic tyrosine kinase domain (GST-DDR2 CKD), expressed alone in sf9 cells.
T1 sequence: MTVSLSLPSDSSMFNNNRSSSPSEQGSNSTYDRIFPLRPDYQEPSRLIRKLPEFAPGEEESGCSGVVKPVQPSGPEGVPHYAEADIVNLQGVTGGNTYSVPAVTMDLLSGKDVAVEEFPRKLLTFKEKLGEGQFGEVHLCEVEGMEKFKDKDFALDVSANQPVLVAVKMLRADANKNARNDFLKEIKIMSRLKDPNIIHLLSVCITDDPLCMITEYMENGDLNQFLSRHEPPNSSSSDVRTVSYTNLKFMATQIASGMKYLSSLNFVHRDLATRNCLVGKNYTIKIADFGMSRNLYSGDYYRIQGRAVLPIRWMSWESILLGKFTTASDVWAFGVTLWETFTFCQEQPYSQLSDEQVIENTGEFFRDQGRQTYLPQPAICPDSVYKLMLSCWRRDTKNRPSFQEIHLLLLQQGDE

A further series deals with shc protein. The series can be described thus: in vitro shc binding assay using HSC T6 cell lysate. Details: species or system human. An excerpt:
One of the characteristic features of tyrosine phosphorylated cytosolic domain of receptor tyrosine kinase is to recruit the signaling proteins such as shc protein. This complex formation between the cytosolic domain of receptor tyrosine kinase protein and signaling proteins such as shc is important for the cellular transmission of the activated receptor tyrosine kinase signal. It has been observed in HSC T6 liver stellate cells and fibroblast cells that shc, one of signaling protein containing PTB domain binds to activated DDR2 cytosolic domain. The present inventors examined whether the invented DDR2 cytosolic tyrosine kinase domain protein with induced tyrosine phosphorylation for example, by the method of co-expression with c-Src in sf 9 cells or with the mutation of tyrosine 740 to phenylalanine 740 can be used for in vitro shc binding assay. In FIG. 15, the purified GST-DDR2 cytosolic domain from sf 9 cells with and without Src coinfection were used for in vitro shc binding assay. Each protein was subject to autophosphorylation reaction at 30° C. for 15 min, and a mock-autophosphylation reaction as well where gamma-S-ATP was used instead of ATP in the reaction buffer before they were used for in vitro shc binding assay using HSC T6 cell lysate.
The purified GST-DDR2 CKD proteins without or with tyrosine phosphorylation by Src were subject to in vitro shc binding assay after autophosphorylation reaction or a mock-autophosphorylation reaction as described in materials and methods. The bound proteins on the glutathione bead were eluted by boiling in 1× lameli buffer. The presence of shc in the eluate was measured by western blotting using shc antibody and the accumulation of tyrosine phosphorylation at GST-DDR2 CKD proteins resulted from autophosphorylation was shown by western blotting using P-tyro antibody. The presence of an equal amount of GST-DDR2 CKD proteins in each eluate was confirmed by CBB staining. ‘Bead only’ means that no GST-DDR2 CKD protein was applied on glutathione bead as a control.
The same type of experiment was done as FIG. 15 using purified GST-DDR2 CKD phosphorylated by src and its mutant proteins of Y740F and Y736/740/741F.
As a source of shc protein, total lysate of HSC T6 cells was used. For the preparation of the lysate, 2×10^7 HSC T6 cells were harvested and lysed by sonication in 5 ml of lysis buffer consisting of 20 mM Tris-HCl (pH8.0), 0.1M NaCl, 5 mM DTT, 10 mM NaF, […], 0.02% IGE-PAL (Sigma) and a proteinase inhibitor cocktail pellet (Roche). The supernatant was obtained by centrifugation in 15,000 rpm for 10 min at 4° C. and used for the following shc binding assay. Various GST-DDR2 KD proteins bound to glutathione bead were obtained as described above. […]

A further series relates to Histone H2B. The series is described as follows: tyrosine kinase activity using Histone H2B as substrate. The following applies: reciprocal plotting 1/V vs 1/[ATP]; FIG. 9, FIG. 10. The class given is biochemical. How it is done:
The GST-DDR2 CKD was solely expressed or co-expressed with the c-Src protein at the ratio of 1:1 in insect cells; the respective obtained GST-DDR2 CKDs were purified; and the tyrosine kinase activities depending on the concentration of ATP were determined using the same amounts of the tyrosine phosphorylation-induced GST-DDR2 CKD (p-GST-DDR2 CKD by Src) which is obtained by co-expression with the c-Src protein in sf 9 cells and non-phosphorylated GST-DDR2 CKD which is obtained by solely expression in sf9 cells.
All measurements were done in triplicate.
The same amount of each protein as judged by CBB staining was used to measure its in vitro tyrosine kinase activity using histone H2B as a substrate as described in materials and methods and their tyrosine kinase activities were shown by autoradiography. Negative stands for a kinase reaction without kinase protein as a control.
Measurement of DDR2 tyrosine kinase activity towards heterologous peptide substrates was performed using 100 ng of the purified kinase protein in 20 ul of reaction mixture containing 20 mM Tris-HCl, pH 8.0, 5 mM MgCl2, 0.5 mM dithiothreitol, 0.01 mM ATP. […] The spotted filter was washed with 0.1M Tris-HCl (pH 8.0) five times for 10 min each and the radioactivity of each spot was visualized and quantitated using BAS image analyzer (Kodak).

On to full-length human c-Src tyrosine kinase, for which the “level of tyrosine phosphorylation of GST-DDR2 CKD against the ratio of the two baculoviruses (western blot, phosphorylated tyrosine specific antibody)” value in series [1] is “The tyrosine phosphorylation at the DDR2 cytosolic tyrosine kinase domain was meaningfully induced, when the DDR2 kinase expression virus and the c-Src protein expression virus are co-expressed even at the ratio of 19:1”.

B1: p-GST-DDR2 CKD by Src: tyrosine phosphorylation-induced GST-DDR2 CKD obtained by co-expression with the c-Src protein in sf 9 cells (protein)
chain: T1 sequence
modifications: left off: a dimerising Fc or GST
notes: tyrosine phosphorylation-induced GST-DDR2 CKD obtained by co-expression with the c-Src protein in sf 9 cells
B1: the “shc binding after in vitro autophosphorylation reaction” value with shc protein (autophosphorylation at 30° C. for 15 min, FIG. 15, FIG. 16) is given as “significantly increased”. Further, the “shc binding before in vitro autophosphorylation” value in the series with shc protein (mock-autophosphorylation with gamma-S-ATP, FIG. 15) was “some shc binding”. In the series with Histone H2B, the “Km value for ATP compared with the non-phosphorylated control protein” value is on record as “decreased” and the “Vmax compared with the non-phosphorylated control protein” value is “increased”.
